Test results taken from patent publication US20110038869A1.
Where two headings read alike, the source gives them in different places. Values belong to the substance of their own block, whether it stands above or below them.

Assays:
CD32aECDHis (human) = CD32aECDHis (human) (UniProt P12318); assay: TR-FRET competition of unlabeled against labelled HuMab-KLH, Fc-mediated
CD32bECDHis (human) [1] = biological target: CD32bECDHis (human) (UniProt P31994); assay: as above
[2] = biological target: full length CD32b1 on transfected IIA1.6 cells (human) (UniProt P31994); assay: flow cytometry on IIA1.6-CD32b1 cells
[3] = biological target: CD32b on CD32b+ Daudi cells (Daudi-luc) (human) (UniProt P31994); assay: cell-based or functional assay
CD32bECDHis (human) [4] = biological target: CD32bECDHis (human) (UniProt P31994); assay: TR-FRET competition against HuMab-KLH-AlexaFluor 647
[5] = biological target: biotinylated CD32bECDHis (human) (UniProt P31994); assay: competition ELISA, competitor 063
[6] = biological target: biotinylated CD32bECDHis (human) (UniProt P31994); assay: competition ELISA, competitor 022
[7] = biological target: full length CD32b on stably transfected IIA1.6 cells (human) (UniProt P31994); assay: flow cytometry on IIA1.6-CD32b cells
[8] = biological target: biotinylated CD32bECDHis (human) (UniProt P31994); assay: competition ELISA, competitor 020
[9] = biological target: CD32b on CD32b+ Daudi cells (Daudi-luc) (human) (UniProt P31994); assay: flow cytometry on Daudi-luc cells
[10] = biological target: biotinylated CD32bECDHis (human) (UniProt P31994); assay: competition ELISA, competitor 034
[11] = biological target: biotinylated CD32bECDHis (human) (UniProt P31994); assay: competition ELISA, competitor 028
[12] = biological target: biotinylated CD32bECDHis (human) (UniProt P31994); assay: competition ELISA, competitor 026
[13] = biological target: biotinylated CD32bECDHis (human) (UniProt P31994); assay: competition ELISA, competitor 053
[14] = biological target: full length CD32b2 on transfected IIA1.6 cells (human) (UniProt P31994); assay: flow cytometry on IIA1.6-CD32b2 cells
[15] = biological target: biotinylated CD32bECDHis (human) (UniProt P31994); assay: competition ELISA, competitor 2B6
[16] = biological target: biotinylated CD32bECDHis (human) (UniProt P31994); assay: competition ELISA, competitor 024
[17] = biological target: CD32b on CD32b+ Daudi cells (Daudi-luc) (human) (UniProt P31994); assay: cell-based or functional assay; remark: listed apart in the source
CD32bECDHis (human) [18] = biological target: CD32bECDHis (human) (UniProt P31994); assay: SPR BIAcore 3000, antibody immobilized, CD32bECDHis analyte
CD32bECDHis (human) [19] = biological target: CD32bECDHis (human) (UniProt P31994); assay: ELISA on coated CD32bECDHis
[20] = biological target: biotinylated CD32bECDHis (human) (UniProt P31994); assay: competition ELISA, competitor 038
[21] = biological target: biotinylated CD32bECDHis (human) (UniProt P31994); assay: competition ELISA, competitor 016
[22] = biological target: CD32b on CD32b+ Daudi cells (Daudi-luc) (human) (UniProt P31994); assay: flow cytometry on JeKo-1 mantle cell lymphoma cells
[23] = biological target: full length CD32b1 on transfected IIA1.6 cells (human) (UniProt P31994); assay: flow cytometry on IIA1.6-CD32b1 against IIA1.6-CD32b2 cells

Sequence of CD32b on CD32b+ Daudi cells (Daudi-luc) (human) (P31994 43-310): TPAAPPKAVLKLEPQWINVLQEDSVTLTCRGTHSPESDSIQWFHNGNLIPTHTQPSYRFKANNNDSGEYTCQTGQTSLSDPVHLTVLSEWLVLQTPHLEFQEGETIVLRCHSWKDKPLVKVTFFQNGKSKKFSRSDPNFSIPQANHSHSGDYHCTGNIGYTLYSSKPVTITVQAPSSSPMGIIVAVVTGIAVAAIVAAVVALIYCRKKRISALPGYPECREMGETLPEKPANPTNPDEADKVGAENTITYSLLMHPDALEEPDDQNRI
Sequence of biotinylated CD32bECDHis (human) (P31994 43-223 limits assumed, form in doubt): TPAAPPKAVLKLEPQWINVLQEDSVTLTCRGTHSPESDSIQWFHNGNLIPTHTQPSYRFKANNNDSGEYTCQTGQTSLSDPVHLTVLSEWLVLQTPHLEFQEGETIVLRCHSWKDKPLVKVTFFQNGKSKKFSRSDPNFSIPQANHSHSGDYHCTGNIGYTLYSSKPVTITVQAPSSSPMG
Sequence of CD32bECDHis (human) (P31994 43-223 limits assumed, form in doubt): as above
Sequence of full length CD32b1 on transfected IIA1.6 cells (human) (P31994 43-310): as the sequence (P31994 43-310) above
Sequence of full length CD32b on stably transfected IIA1.6 cells (human) (P31994 43-310): as above
Sequence of CD32aECDHis (human) (P12318 34-215 limits assumed, form in doubt): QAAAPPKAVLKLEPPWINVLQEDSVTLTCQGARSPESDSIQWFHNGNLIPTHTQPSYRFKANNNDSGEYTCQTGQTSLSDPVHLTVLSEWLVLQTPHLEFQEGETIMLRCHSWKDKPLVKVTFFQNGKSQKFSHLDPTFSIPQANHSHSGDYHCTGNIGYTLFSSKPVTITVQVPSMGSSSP
Sequence of full length CD32b2 on transfected IIA1.6 cells (human) (P31994 other isoform, or with tags, fused parts or gaps): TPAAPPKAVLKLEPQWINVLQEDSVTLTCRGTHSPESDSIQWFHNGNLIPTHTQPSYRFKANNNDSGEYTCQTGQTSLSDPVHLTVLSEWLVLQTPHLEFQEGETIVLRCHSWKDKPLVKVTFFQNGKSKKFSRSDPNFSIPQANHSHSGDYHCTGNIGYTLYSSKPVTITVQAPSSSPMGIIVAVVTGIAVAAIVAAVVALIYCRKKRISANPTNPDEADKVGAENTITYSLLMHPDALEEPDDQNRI

- IC50 (CD32aECDHis (human)): 134 nM
- IC50 (CD32bECDHis (human) [1]): 417 nM
Substance: HuMab-KLH (a human monoclonal antibody against KLH (keyhole limpet haemocyanin))

- EC50 [2]: 0.24 nM
- EC50 (nM) in ADCC, lysis of 51Cr-labelled Daudi cells by PBMC [3]: 0.25 nM
- IC50 (CD32bECDHis (human) [4]): 0.57 nM
- % residual binding [5]: 181%
- % residual binding [6]: 179%
- EC50 [7]: 1.49 nM
- % residual binding [8]: 163%
- EC50 [9]: 0.1 nM
- % residual binding [10]: 185%
- % residual binding [11]: 165%
- % residual binding [12]: 168%
- % residual binding [13]: 185%
- EC50 [14]: 0.19 nM
- % residual binding [15]: 20%
- % residual binding [16]: 174%
- EC50 (nM) in ADCC, lysis of 51Cr-labelled Daudi cells by PBMC [17]: 0.13 nM
- Kd (CD32bECDHis (human) [18]): 0.3 nM
- koff (CD32bECDHis (human) [18]): 0.00087 s⁻¹
- kon (CD32bECDHis (human) [18]): 2.61e+06 M⁻¹ s⁻¹
- EC50 (CD32bECDHis (human) [19]): 1.24 nM
- % residual binding [20]: 113%
- % residual binding [21]: 105%
- EC50 [22]: 0.34 nM
- Ratio EC50 (CD32b1)/EC50(CD32b2) [23]: 1.27
Substance: chimeric anti-CD32b antibody 2B6
